Target: streptavidin, P22629
Experiment: SPR, BIAcore X100, streptavidin on CM5 chip, peptide in solution

streptavidin, P22629, sequence (P22629 37-163 limits assumed): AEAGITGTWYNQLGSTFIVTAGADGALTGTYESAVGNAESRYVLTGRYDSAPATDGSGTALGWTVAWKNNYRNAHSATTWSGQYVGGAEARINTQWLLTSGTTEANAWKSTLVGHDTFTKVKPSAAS

Binder	Kd [µM]
H-LYDHPQNGGQ-OH	100
H-QNDHPQNGGQ-OH	320

Now those with a lower Kd, led by results:

Kd [µM]	Binder
61.3	NQPWQ (modifications not checked) [head-to-tail cyclic NQpWQ peptide]
9.4	LYDHPQNGGQ (modifications not checked)
10.8	QNDHPQNGGQ (modifications not checked)
